Source: US20230090487A1 (published 2023)

What was measured:
human IgE (myeloma IgE) [1] = molecular target: T1, human IgE (myeloma IgE) (human, UniProt P01854-1 1-428); experiment: binding affinity for human IgE; method not stated for the founders
T1 construct: Myeloma IgE coupled by amine coupling to a CM5 chip for Biacore; Also used to sensitize human FcεRIα-expressing 3D10 cells; also called PS IgE

human IgE (myeloma IgE) [2] = molecular target: T1, human IgE (myeloma IgE); experiment: SPR (Biacore method); range told of the group, this end tied to E14 by paragraph 147
Experimental: (§1) The complementary determining region (CDR) sequences and the specificity-determining residues (SDR) of each heavy chain variable (VH) and light chain variable (VL) regions were engrafted into the framework (FR) regions of the most homologous human germline sequences. All the recombinant mAbs were transiently expressed in 293 cells in small scale (50 ml transfection volume) and purified by protein A affinity column for downstream application. The humanized mAbs not expressing or expressing <1 μg/ml recombinant antibody were eliminated. The affinity of humanized LAAIGE (hLAAIGE) to […] was determined by the surface plasmon resonance using Biacore T2000 instrument (Biacore AB, Uppsala, Sweden) with a CM5 sensor chip coupled with myeloma IgE by amine coupling. The purified hLAAIGEs were dissolved in HBS-EP assay buffer containing 0.15 M NaCl, 10 mM HEPES, pH 7.4, 3 mM EDTA, and 0.005% polysorbate 20. The solutions traversed the sensors at a flow rate of 50 μl/minute for binding analysis. Binding results were expressed in resonance units. Kinetic studies were analyzed with BIAevaluation Software Version 4.1. […] The binding of the selected hLAAIGE to the cell surface-bound IgE was confirmed using the human FcεRIα expressing 3D10 cells sensitized with myeloma IgE.

human IgE (myeloma IgE) [3] = molecular target: T1, human IgE (myeloma IgE); experiment: SPR, Biacore T2000, myeloma IgE amine-coupled to CM5 chip, antibody in solution
Experimental: as §1

human IgE (myeloma IgE) [4] = molecular target: T1, human IgE (myeloma IgE); experiment: SPR, Biacore T2000; range told of the chosen antibodies, this end tied to S91 by paragraph 147
Experimental: as §1

human IgE (myeloma IgE) [5] = molecular target: T1, human IgE (myeloma IgE); experiment: SPR (Biacore method); range told of the group, this end tied to H6.2 by paragraph 147
Experimental: as §1

T1 sequence (P01854 other isoform, or with tags, fused parts or gaps): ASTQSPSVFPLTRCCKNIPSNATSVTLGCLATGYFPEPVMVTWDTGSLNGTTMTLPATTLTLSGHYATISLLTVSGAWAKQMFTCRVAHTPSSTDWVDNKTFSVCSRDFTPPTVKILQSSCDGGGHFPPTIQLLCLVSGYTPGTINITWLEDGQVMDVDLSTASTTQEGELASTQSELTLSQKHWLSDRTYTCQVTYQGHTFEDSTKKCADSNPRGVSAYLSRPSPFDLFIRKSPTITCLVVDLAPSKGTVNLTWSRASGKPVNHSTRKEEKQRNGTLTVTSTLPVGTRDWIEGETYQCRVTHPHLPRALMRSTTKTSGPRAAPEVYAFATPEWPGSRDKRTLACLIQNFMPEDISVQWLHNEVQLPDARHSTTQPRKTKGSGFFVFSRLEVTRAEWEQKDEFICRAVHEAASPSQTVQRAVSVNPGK

| Kd (human IgE (myeloma IgE) [3]) | Binder | other results |
| --- | --- | --- |
|  | Founder P6.2 (low affinity anti-human IgE founder mouse mAb) (antibody, V domains shown, Mouse hybridoma mAb) VH: QVQLQQSGAELVRPGTSVKVSCKASGYAFTNYLIEWVKQRPGQGLEWIGVINPGSGFTKYNEKFKGKATLTADKSSSTAYMHLSSLTSDDSAVYFCAREDVYSWFAYWGQGTLVTVSA VL: DIVLTQSPASLAVSLGQRATISCRASESVDSYGNSFMHWYQQKPGQPPKLLIYRTSNLESGIPARFSGSGSRTDFTLTINPVEADDVATYFCQQSYEDPFTFGSGTKLEIK | Kd (human IgE (myeloma IgE) [1]): ~2540 nM |
| 67.2 nM | hLAAIGE E14 (antibody, human IgG1, kappa, V domains shown, The entries are labelled 'VH' and 'VL' but are full heavy (human IgG1) and kappa light chains; Humanized, derived from Founder E17) VH: QVQLVQSGSELKKPGASVKVSCKASGYTFTNYGMNWVRQAPGQGLEWMGWINTYTGEPTYADDFKGRFVFSLDTSVSTAYLQISSLKAEDTAVYYCARGAASHTMDYWGQGTTVTVSS VL: DIVMTQSPDSLAVSLGERATINCRASQSVSTSAHSYMHWYQQKPGQPPKLLIYYASNLESGVPDRFSGSGSGTDFTLTISSLQAEDVAVYYCQHSWEIPWTFGQGTKLEIKR | Kd (human IgE (myeloma IgE) [2]): 70 nM |
| 140 nM | hLAAIGE E17 (antibody, human IgG1, kappa, V domains shown, Humanized clone E17, a different molecule from the mouse Founder E17; The entries are labelled 'VH' and 'VL' but are full heavy (human IgG1) and kappa light chains) VH: QVQLVQSGSELKKPGASVKVSCKASGYTFTNYGMNWVRQAPGQGLEWMGWINTYTGEPTYADDFKGRFVFSLDTSVSTAYLQISSLKAEDTAVYYCARGAASHTMDYWGQGTTVTVSS VL: DIVMTQSPDSLAVSLGERATINCRASQSVSTSSHAYMHWYQQKPGQPPKLLIYYASNLESGVPDRFSGSGSGTDFTLTISSLQAEDVAVYYCQHSWEIPWTFGQGTKLEIKR |  |
| 109 nM | hLAAIGE E23 (antibody, human IgG1, kappa, V domains shown, The entries are labelled 'VH' and 'VL' but are full heavy (human IgG1) and kappa light chains; Humanized, derived from Founder E17) VH: QVQLVQSGSELKKPGASVKVSCKASGYTFTNYGMNWVRQAPGQGLEWMGWINTYTGEPTYADDFKGRFVFSLDTSVSTAYLQISSLKAEDTAVYYCARGAASHTMDYWGQGTTVTVSS VL: DIVMTQSPDSLAVSLGERATINCRASQSVSTSSYSYMHWYQQKPGQPPKLLIYYASNLKAGVPDRFSGSGSGTDFTLTISSLQAEDVAVYYCQHSWEIPWTFGQGTKLEIKR |  |
| 164 nM | hLAAIGE E59 (antibody, human IgG1, kappa, V domains shown, Humanized, derived from Founder E17; Expressed in 293 cells) VH: QVQLVQSGSELKKPGASVKVSCKASGYTFTNYGMNWVRQAPGQGLEWMGWINTYTGEPTYADDFKGRFVFSLDTSVSTAYLQISSLKAEDTAVYYCARGAASHTMDYWGQGTTVTVSS VL: DIVMTQSPDSLAVSLGERATINCRASQSVSTSSHSYMHWYQQKPGQPPKLLIYYASNLESGVPDRFSGSGSGTDFTLTISSLQAEDVAVYYCQHSWEIPWTFGQGTKLEIKR |  |
| 7410 nM | hLAAIGE S91 (antibody, human IgG1, lambda, V domains shown, The entries are labelled 'VH' and 'VL' but are full heavy (human IgG1) and lambda light chains; Humanized, derived from Founder F11) VH: QVQLVQSGAEVKKPGASVKVSCKASGYTFTSYGISWVRQAPGQGLEWMGWISAYNGNTNYAQKLQGRVTMTTDTSTSTAYMELRSLRSDDTAVYYCARVSSWPYWYFDLWGRGTLVTVSS VL: QSAVTQPPSASGSPGQSVTISCTGTSSDVGAYDYVSWYQQHPGKAPKLMIYEVSKRPSGVPDRFSGSKSGNTASLTVSGLQAEDEADYYCSSYAGRVDVFGGGTKLTVLG | Kd (human IgE (myeloma IgE) [4]): 7000 nM |
| ~50000 nM | hLAAIGE H6.2 (antibody, human IgG1, lambda, V domains shown, The entries are labelled 'VH' and 'VL' but are full heavy (human IgG1) and lambda light chains; Humanized, derived from Founder P6.2) VH: QVQLGQSGGGVVQPGRSLRLSCAASGFTFSNYLIEWVRQAPGKGLEWVAVINPGSGFTKYNEKFKQRFTISRDNSKNTLYLQMNSLRAEDTAVYYCAREDVYSWFAYWGQGTLVTVSA VL: QSALTQPASVSGSPGQSITISCTRASESVDSYGNSFMHQHHPGKAPKLMIYEVRTSNLESSNRFSGSKSGNTASLTISGLQAEDEADYYCSSQQSYEDPFTFGSGTKLGQPK | Kd (human IgE (myeloma IgE) [5]): 50000 nM |
